This assay deals with T1, full-length Ty1 IN (IN1-635) fused to Gal4 activating domain (Saccharomyces cerevisiae, UniProt P0C2I7 583-1217).
T1 construct: the residue numbers of the constructs agree with it
T1 sequence: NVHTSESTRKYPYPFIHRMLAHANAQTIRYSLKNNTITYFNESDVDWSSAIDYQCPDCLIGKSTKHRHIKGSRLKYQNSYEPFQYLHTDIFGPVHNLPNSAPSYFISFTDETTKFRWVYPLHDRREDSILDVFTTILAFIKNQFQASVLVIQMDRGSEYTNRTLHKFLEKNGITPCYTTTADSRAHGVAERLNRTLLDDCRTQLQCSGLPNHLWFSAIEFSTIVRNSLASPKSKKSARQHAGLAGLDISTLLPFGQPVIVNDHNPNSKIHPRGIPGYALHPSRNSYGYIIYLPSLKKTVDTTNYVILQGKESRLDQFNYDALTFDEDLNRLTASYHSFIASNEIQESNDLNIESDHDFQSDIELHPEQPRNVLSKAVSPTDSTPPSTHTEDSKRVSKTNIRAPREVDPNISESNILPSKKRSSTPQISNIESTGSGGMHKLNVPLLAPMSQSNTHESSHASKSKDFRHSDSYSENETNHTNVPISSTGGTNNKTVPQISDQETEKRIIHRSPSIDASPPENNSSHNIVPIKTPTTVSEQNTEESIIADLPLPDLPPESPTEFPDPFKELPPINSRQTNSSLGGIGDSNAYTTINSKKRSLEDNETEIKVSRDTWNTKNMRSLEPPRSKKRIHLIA
The assay is described as follows: yeast two-hybrid. An excerpt: (A) Two-hybrid interaction between different domains of Ty1-IN and AC40 or AC40sp. Left, Ty1 structure. Two open reading frames, GAG and POL (historically TYA and TYB), are flanked by two LTRs (black triangles). Protease (PR), integrase (IN), reverse transcriptase-RNAse H (RT/RH). The left-right arrow indicates Ty1 sequences recovered in the two-hybrid screen (2-HS) with AC40 as bait (coordinates 2706-4342 in Ty1). Ty1-IN regions fused to Gal4 activating domain (GAD) are depicted. Right, serial 10-fold dilutions of liquid cultures of cells expressing AC40 or AC40sp fused to Gal4 binding domain (GBD) and the various GAD-IN proteins were plated onto non-selective (Control) or selective (Interaction) media to detect interactions. (B) Co-immunoprecipitation of AC40 and IN-Strep. A 6×HA epitope was inserted at the end of the endogenous RPC40 gene (AC40-HA) and IN was fused with streptavidine (IN-Strep) and expressed from a galactose inducible promoter. Immunoprecipitation of protein extracts was performed with anti-HA magnetic beads coupled to IgG. […] (C) Co-immunoprecipitation of AC40 and IN expressed from a galactose inducible functional Ty1 element. Immunoprecipitation conditions are as in FIG. 3B.

B1: S. pombe AC40 (AC40sp) fused to Gal4 binding domain (GBD-AC40sp) (other, UniProt P04386 1-147, looked up)
chain: MKLLSSIEQACDICRLKKLKCSKEKPKCAKCLKNNWECRYSPKTKRSPLTRAHLTEVESRLERLEQLFLLIFPREDLDMILKMDSLQDIKALLTGLFVQDNVNKDAVTDRLASVETDMPLTLRQHRISATSSSEESSNKGQRQLTVSMAAVDRSRTEISVLSDRVTDVGSVDFPGYYFDEDNIWDLDKFKKNLKVSITSLDQETMVFEISGIDASIANAFRRILIAEIPTLAFEFVYIINNTSIIQDEVLSHRIGLVPISADPDMFKWFQHPLPGQEATHTDYDTVVFSLNKKCEFNKNAATDEKDPKRLYVNSEVYSGDLIWKPQGRQEERFADNPIRVVNPDIVVAKLRPGQEIDLEAHAILGIGQDHAKFSPVATASYRLLPTIHILSPIEGEDAVKFQKCFPKGVIELEEGPDGKKQARVADVRKDTVSRECLRHPEFADKVQLGRVRDHYLFSVESTGIMKPDVLFIKSIAVLKSKCLAVKSSLQNISSD
With B1, the binding result was “no binding”.
